Assay results from paper PMC12607630, “ZapC crosslinks FtsZ filaments through a dual-binding mechanism modulated by the intrinsically disordered linker of FtsZ in Escherichia coli” (mBio, 2025).
Numbering of substitutions follows the chain as printed. “And” between values parts separate entries of the source, which are not always exact repeats. Equal entries are not always repeated.

Legend:
Assay in all cases: BLI; 6×His-ZapC or its mutants (0.5 µM) loaded on Ni-NTA biosensors, untagged FtsZ or its variants in solution; Octet-Red96, 30°C, 1× Pol buffer (50 mM HEPES-NaOH pH 6.8, 50 mM KCl, 10 mM MgCl2); apparent Kd from the signal at the end of association against concentration, one-site fit; three repeats with mean (X) and SD
Details in all cases: both partners purified
[1] = target: T1, FtsZ A376T (untagged) (Escherichia coli, UniProt P0A9A6 1-383, A376T)
T1 construct: FtsZ of Escherichia coli with A376T (CTP); Derivative of pLY17 by site-directed mutagenesis; source: E. coli BL21(DE3), plasmid pLY22, purified (Ni-NTA); 6×His-SUMO tag removed with Ulp1; not shown: 6×His-SUMO, N-terminal, cleaved
T1 sequence (looked up): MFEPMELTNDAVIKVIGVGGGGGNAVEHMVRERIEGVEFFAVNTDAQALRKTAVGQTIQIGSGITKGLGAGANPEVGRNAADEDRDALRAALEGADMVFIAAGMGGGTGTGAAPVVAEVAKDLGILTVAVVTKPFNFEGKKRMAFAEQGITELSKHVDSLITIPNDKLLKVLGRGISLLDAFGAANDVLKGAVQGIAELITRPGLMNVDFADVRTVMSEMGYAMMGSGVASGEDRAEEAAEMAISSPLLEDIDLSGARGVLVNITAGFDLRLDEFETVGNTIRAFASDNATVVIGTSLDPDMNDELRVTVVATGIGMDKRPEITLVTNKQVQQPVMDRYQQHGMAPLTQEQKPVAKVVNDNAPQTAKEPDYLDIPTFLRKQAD

[2] = target: T2, FtsZ 1-370 (untagged) (Escherichia coli, UniProt P0A9A6 1-370)
T2 construct: FtsZ of Escherichia coli, residues 1-370; lacks the CTP; Primers BsaI-out-F and 370XbaI-out-R; forward primer starts at codon 2; source: E. coli BL21(DE3), plasmid pLY341, purified (Ni-NTA); 6×His-SUMO tag removed with Ulp1; not shown: 6×His-SUMO, N-terminal, cleaved
T2 sequence (looked up): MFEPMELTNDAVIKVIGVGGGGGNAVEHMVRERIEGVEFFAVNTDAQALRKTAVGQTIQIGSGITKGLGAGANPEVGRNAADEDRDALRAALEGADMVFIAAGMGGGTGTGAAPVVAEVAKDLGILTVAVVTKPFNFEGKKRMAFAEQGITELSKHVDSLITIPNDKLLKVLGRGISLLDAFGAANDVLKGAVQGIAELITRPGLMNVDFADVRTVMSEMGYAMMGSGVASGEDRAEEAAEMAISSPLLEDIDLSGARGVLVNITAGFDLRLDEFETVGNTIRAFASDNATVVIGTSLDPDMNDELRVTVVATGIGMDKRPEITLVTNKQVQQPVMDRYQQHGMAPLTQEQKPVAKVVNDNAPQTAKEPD

[3] = target: T3, FtsZ I323L (untagged) (Escherichia coli, UniProt P0A9A6 1-383, I323L)
T3 construct: FtsZ of Escherichia coli with I323L (CTL); Derivative of pLY17 by site-directed mutagenesis; source: E. coli BL21(DE3), plasmid pLY20, purified (Ni-NTA); 6×His-SUMO tag removed with Ulp1; not shown: 6×His-SUMO, N-terminal, cleaved
T3 sequence (looked up): T1 sequence (looked up) with I323L, T376A

[4] = target: T4, FtsZ 1-316 (untagged) (Escherichia coli, UniProt P0A9A6 1-316)
T4 construct: lacks the entire CTL and the CTP; source: E. coli BL21(DE3), plasmid pLY343, purified (Ni-NTA); 6×His-SUMO tag removed with Ulp1; not shown: 6×His-SUMO, N-terminal, cleaved
T4 sequence (looked up): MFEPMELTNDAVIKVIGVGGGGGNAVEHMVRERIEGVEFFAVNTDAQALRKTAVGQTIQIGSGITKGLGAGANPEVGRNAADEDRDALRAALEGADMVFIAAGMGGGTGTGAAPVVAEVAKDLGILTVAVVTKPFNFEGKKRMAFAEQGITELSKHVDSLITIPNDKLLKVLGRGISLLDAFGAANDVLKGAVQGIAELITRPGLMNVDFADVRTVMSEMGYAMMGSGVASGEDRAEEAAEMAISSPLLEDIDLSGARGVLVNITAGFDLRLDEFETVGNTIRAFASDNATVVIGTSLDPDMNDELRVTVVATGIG

Kd [1]: 0.859 µM and 0.778 µM and 0.821 µM and 0.819 µM
Kd [2]: 1.54 µM and 1.19 µM and 1.26 µM and 1.33 µM
Kd [3]: 0.647 µM and 0.635 µM and 0.62 µM and 0.579 µM
Kd [4]: 1.54 µM and 1.91 µM and 1.29 µM and 1.58 µM
B1: 6×His-ZapC (natural protein)
chain: not shown
notes: ZapC, FtsZ-associated protein of Escherichia coli; Construction of pSD323 is not described; also called His-tagged ZapC; source: E. coli, plasmid pSD323 (pQE80, Plac::6×His-ZapC), purified (Ni-NTA); not shown: His6, N-terminal, kept
